Measured values reported in the supplement of paper PMC9112550, “Optimization of the antimicrobial peptide Bac7 by deep mutational scanning” (BMC Biology, 2022).

Tested on: Escherichia coli TOP10
Assay: shrunken log2 fold change of peptide-encoding DNA abundance (4.5 h post-induction vs induction); higher = less antimicrobial activity (less host growth inhibition)
Conditions: time post-induction: 4.5 h; library: site-saturation at positions 5, 18, 19, 20
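Note: peptides expressed intracellularly from a pBAD plasmid library in pooled LB shake-flask culture, induced with 0.3% L-arabinose, DNA abundance read by NGS, three biological replicates, DESeq2 with apeglm shrinkage.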

First: RRIRLRPPRLPRPRPRPNMVPRP
Second: RRIRGRPPRLPRPRPRPCVWPRP
The “shrunken log2 fold change” value of the first is lower: -0.126 for the first, 0.921 for the second.

Compared with RRIRWRPPRLPRPRPRPFCRPRP, RRIRMRPPRLPRPRPRPGSFPRP is higher in “shrunken log2 fold change” value: 0.0689 for the first, 1.04 for the second.

RRIRDRPPRLPRPRPRPPTWPRP and RRIRPRPPRLPRPRPRPCWPPRP are within 0.2 log units of each other in “shrunken log2 fold change” value: 0.291 for the first, 0.144 for the second.

RRIRARPPRLPRPRPRPYGHPRP and RRIRQRPPRLPRPRPRPMGLPRP are within 0.2 log units of each other in “shrunken log2 fold change” value: -0.095 for the first, -0.0103 for the second.

RRIRDRPPRLPRPRPRPVCHPRP and RRIRQRPPRLPRPRPRPFRKPRP are within 0.2 log units of each other in “shrunken log2 fold change” value: -0.0164 for the first, -0.101 for the second.

First: RRIRHRPPRLPRPRPRPLYDPRP
Second: RRIRVRPPRLPRPRPRPKSPPRP
The “shrunken log2 fold change” value of the first is lower: -0.738 for the first, 0.272 for the second.

RRIRQRPPRLPRPRPRPTLWPRP and RRIRFRPPRLPRPRPRPEKRPRP are within 0.2 log units of each other in “shrunken log2 fold change” value: 0.0794 for the first, -0.0774 for the second.

RRIRVRPPRLPRPRPRPYAEPRP and RRIRARPPRLPRPRPRPMDSPRP are within 0.2 log units of each other in “shrunken log2 fold change” value: -0.0642 for the first, -0.104 for the second.

RRIRYRPPRLPRPRPRPGVQPRP and RRIRKRPPRLPRPRPRPISRPRP are within 0.2 log units of each other in “shrunken log2 fold change” value: 0.0651 for the first, -0.00748 for the second.

First: RRIRVRPPRLPRPRPRPDVWPRP
Second: RRIRLRPPRLPRPRPRPFALPRP
The “shrunken log2 fold change” value of the first is lower: -0.0858 for the first, 0.187 for the second.

Compared with RRIRRRPPRLPRPRPRPIHKPRP, RRIRCRPPRLPRPRPRPCTGPRP is lower in “shrunken log2 fold change” value: 0.27 for the first, -0.307 for the second.

Going from RRIRDRPPRLPRPRPRPNLKPRP to RRIRLRPPRLPRPRPRPFVEPRP, the “shrunken log2 fold change” value falls from 0.114 to -0.478.

RRIRLRPPRLPRPRPRPVIMPRP and RRIRQRPPRLPRPRPRPDEGPRP are within 0.2 log units of each other in “shrunken log2 fold change” value: -0.0794 for the first, -0.106 for the second.

Compared with RRIRYRPPRLPRPRPRPENNPRP, RRIRFRPPRLPRPRPRPECTPRP is higher in “shrunken log2 fold change” value: -0.572 for the first, 0.0551 for the second.

First: RRIRGRPPRLPRPRPRPVSRPRP
Second: RRIRFRPPRLPRPRPRPAITPRP
The “shrunken log2 fold change” value of the first is higher: 0.491 for the first, -0.136 for the second.

RRIRTRPPRLPRPRPRPPVYPRP and RRIRLRPPRLPRPRPRPWVIPRP are within 0.2 log units of each other in “shrunken log2 fold change” value: -0.0771 for the first, -0.0649 for the second.

First: RRIRMRPPRLPRPRPRPEPDPRP
Second: RRIRERPPRLPRPRPRPKTTPRP
The “shrunken log2 fold change” value of the first is higher: 1.12 for the first, -0.107 for the second.

RRIRNRPPRLPRPRPRPRADPRP and RRIRMRPPRLPRPRPRPWLTPRP are within 0.2 log units of each other in “shrunken log2 fold change” value: 0.327 for the first, 0.158 for the second.

RRIRFRPPRLPRPRPRPGKAPRP and RRIRVRPPRLPRPRPRPRSEPRP are within 0.2 log units of each other in “shrunken log2 fold change” value: 0.0429 for the first, -0.14 for the second.

Compared with RRIRCRPPRLPRPRPRPVREPRP, RRIRPRPPRLPRPRPRPHLEPRP is lower in “shrunken log2 fold change” value: 0.386 for the first, -0.122 for the second.

Going from RRIRRRPPRLPRPRPRPRGAPRP to RRIRDRPPRLPRPRPRPMIPPRP, the “shrunken log2 fold change” value falls from 0.8 to -0.184.

RRIRSRPPRLPRPRPRPVYWPRP and RRIRPRPPRLPRPRPRPDHFPRP are within 0.2 log units of each other in “shrunken log2 fold change” value: -0.175 for the first, -0.0536 for the second.

Compared with RRIRKRPPRLPRPRPRPYCHPRP, RRIRVRPPRLPRPRPRPNHAPRP is higher in “shrunken log2 fold change” value: -0.469 for the first, 0.0625 for the second.

RRIRQRPPRLPRPRPRPGVAPRP and RRIRHRPPRLPRPRPRPEVGPRP are within 0.2 log units of each other in “shrunken log2 fold change” value: 0.207 for the first, 0.0518 for the second.

First: RRIRIRPPRLPRPRPRPILNPRP
Second: RRIRYRPPRLPRPRPRPSEPPRP
The “shrunken log2 fold change” value of the first is lower: -0.73 for the first, -0.205 for the second.

First: RRIRPRPPRLPRPRPRPRPFPRP
Second: RRIRSRPPRLPRPRPRPHYYPRP
The “shrunken log2 fold change” value of the first is higher: 0.248 for the first, -0.581 for the second.

Compared with RRIRFRPPRLPRPRPRPTADPRP, RRIRNRPPRLPRPRPRPGWCPRP is higher in “shrunken log2 fold change” value: 0.359 for the first, 2.24 for the second.

Going from RRIRCRPPRLPRPRPRPLQVPRP to RRIRERPPRLPRPRPRPFAPPRP, the “shrunken log2 fold change” value rises from -0.481 to 0.117.

Going from RRIRERPPRLPRPRPRPYHNPRP to RRIRRRPPRLPRPRPRPFHSPRP, the “shrunken log2 fold change” value rises from -1.33 to 0.00922.

Compared with RRIRSRPPRLPRPRPRPTSSPRP, RRIRRRPPRLPRPRPRPTEVPRP is higher in “shrunken log2 fold change” value: -0.296 for the first, 0.238 for the second.

First: RRIRTRPPRLPRPRPRPGHYPRP
Second: RRIRLRPPRLPRPRPRPLRFPRP
The “shrunken log2 fold change” value of the first is lower: -0.137 for the first, 0.477 for the second.

For RRIRCRPPRLPRPRPRPVQQPRP, the “shrunken log2 fold change” value was 0.148.
